These results are taken from the supplement of paper PMC5998384.

The test system of series [1] is HeLa Kyoto. The series can be described thus: solubility change mitosis vs G1/S (difference of NP-40 vs SDS log2 ratios) (log2 ratio difference); higher = more soluble in mitosis.
Series [2] concerns HeLa Kyoto. The series can be described thus: solubility in G1/S (NP-40 vs SDS abundance) (log2 ratio); higher = more soluble. To be noted: cell cycle stage: G1/S.
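Wherever solubility change mitosis vs G1/S (difference of NP-40 vs SDS log2 ratios) is given: synchronized HeLa Kyoto cells (double thymidine block for G1/S, nocodazole release for mitosis), protein amounts in NP-40 versus SDS lysates quantified by mass spectrometry, three biological replicates.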
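Wherever solubility in G1/S (NP-40 vs SDS abundance) is given: HeLa Kyoto cells arrested at G1/S by double thymidine block, proteins quantified by TMT10plex mass spectrometry in mild NP-40 versus SDS extracts, three biological replicates.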

In the case of “MAAATVGRDTLPEHWSYGVCRDGRVFFINDQLRCTTWLHPRTGEPVNSGHMIRSDLPRGWEEGFTEEGASYFIDHNQQTTAFRHPVTGQFSPENSEFILQEEPNPHMSKQDRNQRPSSMVSETSTAGTASTLEAKPGPKIIKSSSKVHSFGKRDQAIRRNPNVPVVVRGWLHKQDSSGMRLWKRRWFVLADYCLFYYKDSREEAVLGSIPLPSYVISPVAPEDRISRKYSFKAVHTGMRALIYNSSTAGSQAEQSGMRTYYFSADTQEDMNAWVRAMNQAAQVLSRSSLKRDMEKVERQAVPQANHTESCHECGRVGPGHTRDCPHRGHDDIVNFERQEQEGEQYRSQRDPLEGKRDRSKARSPYSPAEEDALFMDLPTGPRGQQAQPQRAEKNGMLPASYGPGEQNGTGGYQRAFPPRTNPEKHSQRKSNLAQVEHWARAQKGDSRSLPLDQTLPRQGPGQSLSFPENYQTLPKSTRHPSGGSSPPPRNLPSDYKYAQDRASHLKMSSEERRAHRDGTVWQLYEWQQRQQFRHGSPTAPICLGSPEFTDQGRSRSMLEVPRSISVPPSPSDIPPPGPPRVFPPRRPHTPAERVTVKPPDQRRSVDISLGDSPRRARGHAVKNSSHVDRRSMPSMGYMTHTVSAPSLHGKSADDTYLQLKKDLEYLDLKMTGRDLLKDRSLKPVKIAESDTDVKLSIFCEQDRVLQDLEDKIRALKENKDQLESVLEVLHRQMEQYRDQPQHLEKIAYQQKLLQEDLVHIRAELSRESTEMENAWNEYLKLENDVEQLKQTLQEQHRRAFFFQEKSQIQKDLWRIEDVTAGLSANKENFRILVESVKNPERKTVPLFPHPPVPSLSTSESKPPPQPSPPTSPVRTPLEVRLFPQLQTYVPYRPHPPQLRKVTSPLQSPTKAKPKVEDEAPPRPPLPELYSPEDQPPAVPPLPREATIIRHTSVRGLKRQSDERKRDRELGQCVNGDSRVELRSYVSEPELATLSGDMAQPSLGLVGPESRYQTLPGRGLSGSTSRLQQSSTIAPYVTLRRGLNAESSKATFPRPKSALERLYSGDHQRGKMSAEEQLERMKRHQKALVRERKRTLGQGERTGLPSSRYLSRPLPGDLGSVC [PLEKHA7]”, the “solubility change mitosis (log2)” value in the series with HeLa Kyoto [1] stood at 0.454. For the same sequence, the “solubility in G1/S (log2)” value in the series with HeLa Kyoto [2] is -0.548.

Take “MAAELVEAKNMVMSFRVSDLQMLLGFVGRSKSGLKHELVTRALQLVQFDCSPELFKKIKELYETRYAKKNSEPAPQPHRPLDPLTMHSTYDRAGAVPRTPLAGPNIDYPVLYGKYLNGLGRLPAKTLKPEVRLVKLPFFNMLDELLKPTELVPQNNEKLQESPCIFALTPRQVELIRNSRELQPGVKAVQVVLRICYSDTSCPQEDQYPPNIAVKVNHSYCSVPGYYPSNKPGVEPKRPCRPINLTHLMYLSSATNRITVTWGNYGKSYSVALYLVRQLTSSELLQRLKTIGVKHPELCKALVKEKLRLDPDSEIATTGVRVSLICPLVKMRLSVPCRAETCAHLQCFDAVFYLQMNEKKPTWMCPVCDKPAPYDQLIIDGLLSKILSECEDADEIEYLVDGSWCPIRAEKERSCSPQGAILVLGPSDANGLLPAPSVNGSGALGSTGGGGPVGSMENGKPGADVVDLTLDSSSSSEDEEEEEEEEEDEDEEGPRPKRRCPFQKGLVPAC [PIAS4]”: the “solubility change mitosis (log2)” value with HeLa Kyoto [1] is -0.116. For the same sequence, in the series with HeLa Kyoto [2], the “solubility in G1/S (log2)” value amounted to 0.228.

On to “MAAGSDLLDEVFFNSEVDEKVVSDLVGSLESQLAASAAHHHHLAPRTPEVRAAAAGALGNHVVSGSPAGAAGAGPAAPAEGAPGAAPEPPPAGRARPGGGGPQRPGPPSPRRPLVPAGPAPPAAKLRPPPEGSAGSCAPVPAAAAVAAGPEPAPAGPAKPAGPAALAARAGPGPGPGPGPGPGPGPGKPAGPGAAQTLNGSAALLNSHHAAAPAVSLVNNGPAALLPLPKPAAPGTVIQTPPFVGAAAPPAPAAPSPPAAPAPAAPAAAPPPPPPAPATLARPPGHPAGPPTAAPAVPPPAAAQNGGSAGAAPAPAPAAGGPAGVSGQPGPGAAAAAPAPGVKAESPKRVVQAAPPAAQTLAASGPASTAASMVIGPTMQGALPSPAAVPPPAPGTPTGLPKGAAGAVTQSLSRTPTATTSGIRATLTPTVLAPRLPQPPQNPTNIQNFQLPPGMVLVRSENGQLLMIPQQALAQMQAQAHAQPQTTMAPRPATPTSAPPVQISTVQAPGTPIIARQVTPTTIIKQVSQAQTTVQPSATLQRSPGVQPQLVLGGAAQTASLGTATAVQTGTPQRTVPGATTTSSAATETMENVKKCKNFLSTLIKLASSGKQSTETAANVKELVQNLLDGKIEAEDFTSRLYRELNSSPQPYLVPFLKRSLPALRQLTPDSAAFIQQSQQQPPPPTSQATTALTAVVLSSSVQRTAGKTAATVTSALQPPVLSLTQPTQVGVGKQGQPTPLVIQQPPKPGALIRPPQVTLTQTPMVALRQPHNRIMLTTPQQIQLNPLQPVPVVKPAVLPGTKALSAVSAQAAAAQKNKLKEPGGGSFRDDDDINDVASMAGVNLSEESARILATNSELVGTLTRSCKDETFLLQAPLQRRILEIGKKHGITELHPDVVSYVSHATQQRLQNLVEKISETAQQKNFSYKDDDRYEQASDVRAQLKFFEQLDQIEKQRKDEQEREILMRAAKSRSRQEDPEQLRLKQKAKEMQQQELAQMRQRDANLTALAAIGPRKKRKVDCPGPGSGAEGSGPGSVVPGSSGVGTPRQFTRQRITRVNLRDLIFCLENERETSHSLLLYKAFLK [TAF4]”, for which the “solubility change mitosis (log2)” value in the series on HeLa Kyoto [1] stood at 0.0124. In addition, the “solubility in G1/S (log2)” value in the series with HeLa Kyoto [2] was found to be 0.132.

As for “MAALAEEQTEVAVKLEPEGPPTLLPPQAGDGAGEGSGGTTNNGPNGGGGNVAASSSTGGDGGTPKPTVAVSAAAPAGAAPVPAAAPDAGAPHDRQTLLAVLQFLRQSKLREAEEALRREAGLLEEAVAGSGAPGEVDSAGAEVTSALLSRVTASAPGPAAPDPPGTGASGATVVSGSASGPAAPGKVGSVAVEDQPDVSAVLSAYNQQGDPTMYEEYYSGLKHFIECSLDCHRAELSQLFYPLFVHMYLELVYNQHENEAKSFFEKFHGDQECYYQDDLRVLSSLTKKEHMKGNETMLDFRTSKFVLRISRDSYQLLKRHLQEKQNNQIWNIVQEHLYIDIFDGMPRSKQQIDAMVGSLAGEAKREANKSKVFFGLLKEPEIEVPLDDEDEEGENEEGKPKKKKPKKDSIGSKSKKQDPNAPPQNRIPLPELKDSDKLDKIMNMKETTKRVRLGPDCLPSICFYTFLNAYQGLTAVDVTDDSSLIAGGFADSTVRVWSVTPKKLRSVKQASDLSLIDKESDDVLERIMDEKTASELKILYGHSGPVYGASFSPDRNYLLSSSEDGTVRLWSLQTFTCLVGYKGHNYPVWDTQFSPYGYYFVSGGHDRVARLWATDHYQPLRIFAGHLADVNCTRFHPNSNYVATGSADRTVRLWDVLNGNCVRIFTGHKGPIHSLTFSPNGRFLATGATDGRVLLWDIGHGLMVGELKGHTDTVCSLRFSRDGEILASGSMDNTVRLWDAIKAFEDLETDDFTTATGHINLPENSQELLLGTYMTKSTPVVHLHFTRRNLVLAAGAYSPQ [TAF5]”, in the series with HeLa Kyoto [1], the “solubility change mitosis (log2)” value amounted to 0.00763. The “solubility in G1/S (log2)” value in the series with HeLa Kyoto [2] was -0.0963.

In the case of “MAALGHLAGEAAAAPGPGTPCASRGARLPGPVSSARNPSTVCLCPEQPTCSNADSRAHPLGDEGGTASKKQKNKKKTRNRASVANGGEKASEKLAPEEVPLSAEAQAQQLAQELAWCVEQLELGLKRQKPTPKQKEQAIGAIRTLRSKRTPLPRKRQLMHSLFGDYRAQMEAEWREALRALRAAAYSAQVQPVDGATRKKSQRVCRPRSIWRAKATLDMPDEEFRFNFF [C8ORF33]”, the “solubility change mitosis (log2)” value in the series with HeLa Kyoto [1] turned out to be 0.747. Also, the “solubility in G1/S (log2)” value in the series with HeLa Kyoto [2] stood at 0.306.

Regarding “MAAPRWSASGPWIRGNGQGCGSLFTLVSKPFCAAAAASTAINAQRLAEKLRAQKREQDTKKEPVSTNAVQRRVQEIVRFTRQLQRVHPNVLAKALTRGILHQDKNLVVINKPYGLPVHGGPGVQLCITDVLPILAKMLHGHKAEPLHLCHRLDKETTGVMVLAWDKDMAHQVQELFRTRQVVKKYWAITVHVPMPSAGVVDIPIVEKEAQGQQQHHKMTLSPSYRMDDGKMVKVRRSRNAQVAVTQYQVLSSTLSSALVELQPITGIKHQLRVHLSFGLDCPILGDHKYSDWNRLAPQKLSVGTLKKLGLEQSKARYIPLHLHARQLILPALGSGKEELNLVCKLPRFFVHSLHRLRLEMPNEDQNENNEAKCLGAQ [RPUSD4]”, the “solubility change mitosis (log2)” value in the series with HeLa Kyoto [1] stood at 0.0788. The “solubility in G1/S (log2)” value with HeLa Kyoto [2] is -0.22.

With “MAAPTPARPVLTHLLVALFGMGSWAAVNGIWVELPVVVKELPEGWSLPSYVSVLVALGNLGLLVVTLWRRLAPGKDEQVPIRVVQVLGMVGTALLASLWHHVAPVAGQLHSVAFLALAFVLALACCASNVTFLPFLSHLPPRFLRSFFLGQGLSALLPCVLALVQGVGRLECPPAPINGTPGPPLDFLERFPASTFFWALTALLVASAAAFQGLLLLLPPPPSVPTGELGSGLQVGAPGAEEEVEESSPLQEPPSQAAGTTPGPDPKAYQLLSARSACLLGLLAATNALTNGVLPAVQSFSCLPYGRLAYHLAVVLGSAANPLACFLAMGVLCRSLAGLGGLSLLGVFCGGYLMALAVLSPCPPLVGTSAGVVLVVLSWVLCLGVFSYVKVAASSLLHGGGRPALLAAGVAIQVGSLLGAVAMFPPTSIYHVFHSRKDCADPCDS [SLC52A2]”, the “solubility change mitosis (log2)” value in the series on HeLa Kyoto [1] is 0.202. In addition, the “solubility in G1/S (log2)” value in the series on HeLa Kyoto [2] is -0.143.

Take “MAAPVGPVKFWRPGTEGPGVSISEERQSLAENSGTTVVYNPYAALSIEQQRQKLPVFKLRNHILYLIENYQTVVIVGETGCGKSTQIPQYLAEAGWTAEGRVVGVTQPRRVAAVTVAGRVAEERGAVLGHEVGYCIRFDDCTDQLATRIKFLTDGMLVREMMVDPLLTKYSVIMLDEAHERTLYTDIAIGLLKKIQKKRGDLRLIVASATLDADKFRDFFNQNETSDPARDTCVILTVEGRTFPVDIFYLQSPVPDYIKSTVETVVKIHQTEGDGDVLAFLTGQEEVETVVSMLIEQARALARTGMKRHLRVLPMYAGLPSFEQMKVFERVSRSVRKVIVATNVAETSITISGIVYVIDCGFVKLRAYNPRTAIECLVVVPVSQASANQRAGRGGRSRSGKCYRLYTEEAFDKLPQSTVPEMQRSNLAPVILQLKALGIDNVLRFHFMSPPPAQSMVQALELLYALGGLDKDCRLTEPLGMRIAEFPLNPMFAKMLLESGNFGCSQEILSIAAMMQIQNIFVVPPNQKSHAIRVHRKFAVEEGDHLTMLNIYEAFIKHNKDSKWCQEHFLNYKGLVRAATVREQLKKLLVKFQVPRKSSEGDPDLVLRCIVSGFFANAARFHSTGAYRTIRDDHELHIHPASVLYAEKPPRWVIYNEVIQTSKYYMRDVTAIESAWLLELAPHFYQQGTHLSLKAKRAKVQDP [DHX35]”: the “solubility change mitosis (log2)” value in the series on HeLa Kyoto [1] was 0.261. Moreover, the “solubility in G1/S (log2)” value with HeLa Kyoto [2] is -0.538.

On to “MAAPVLLRVSVPRWERVARYAVCAAGILLSIYAYHVEREKERDPEHRALCDLGPWVKCSAALASRWGRGFGLLGSIFGKDGVLNQPNSVFGLIFYILQLLLGMTASAVAALILMTSSIMSVVGSLYLAYILYFVLKEFCIICIVTYVLNFLLLIINYKRLVYLNEAWKRQLQPKQD [VKORC1L1]”, for which the “solubility change mitosis (log2)” value in the series with HeLa Kyoto [1] is -0.107. In the series on HeLa Kyoto [2], the “solubility in G1/S (log2)” value is -0.56.
